Measurements from patent US20240067747A1 (SHANGHAI HUAOTA BIOPHARMACEUTICAL, published 2024).
Substitutions are numbered along the chain they refer to.

T1: recombinant human CD73 protein (ACRO Biosystems, item No. CD3-H52H7) (human, UniProt P21589 27-547)
T1 construct: also called recombinant CD73 protein
T1 sequence (looked up): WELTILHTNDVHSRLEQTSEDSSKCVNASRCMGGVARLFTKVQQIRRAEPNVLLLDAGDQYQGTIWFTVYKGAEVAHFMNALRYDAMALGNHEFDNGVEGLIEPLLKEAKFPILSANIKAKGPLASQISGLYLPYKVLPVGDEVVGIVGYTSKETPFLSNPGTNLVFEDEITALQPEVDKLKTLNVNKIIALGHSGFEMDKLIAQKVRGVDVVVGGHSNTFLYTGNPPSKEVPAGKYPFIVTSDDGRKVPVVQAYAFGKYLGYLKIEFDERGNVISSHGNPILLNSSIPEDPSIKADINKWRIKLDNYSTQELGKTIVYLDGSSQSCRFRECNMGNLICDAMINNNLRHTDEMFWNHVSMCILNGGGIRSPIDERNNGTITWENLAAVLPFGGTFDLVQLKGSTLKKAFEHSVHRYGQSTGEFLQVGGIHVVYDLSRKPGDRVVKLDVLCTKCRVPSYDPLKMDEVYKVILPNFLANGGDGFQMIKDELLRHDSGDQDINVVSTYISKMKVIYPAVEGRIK

T2: Trypsin inhibitor type 1-S from Glycine max (Sigma, T-2327) (Glycine max, UniProt P01070 25-205)
T2 construct: Non-target molecule, amine-coupled to a CM5 chip
T2 sequence (looked up): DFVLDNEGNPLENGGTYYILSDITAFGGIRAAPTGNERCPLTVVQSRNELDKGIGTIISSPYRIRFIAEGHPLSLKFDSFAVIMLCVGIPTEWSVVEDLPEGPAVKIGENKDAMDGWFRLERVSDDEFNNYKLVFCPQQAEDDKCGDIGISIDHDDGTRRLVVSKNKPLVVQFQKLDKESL

B1: 900725 (humanized anti-CD73 antigen-binding protein) (antibody, V domains shown)
VH: QVQLVQSGAEVKKPGASVKLSCKASGYTFTSYWIHWVRQAPGQGLEWIGMIHPNSGSTYYNEKFKGRATLTVDKSTSTAYMELSSLRSEDTAVYYCARYYGSDYEWYFDVWGQGTTVTVSS
VL: DIQMTQSPSSMSASVGDRVTITCKASQNVRTAVVWYQQKPGKAPKALIYLASNRHTGVPDRFSGSGSGTDFTLTISSLQPEDFATYFCLQHWNYPYTFGQGTKLEIK
B2: 900727 (humanized anti-CD73 antigen-binding protein) (antibody, V domains shown)
VH: B1 VH with L20V, N61A, E62Q, K65Q, A68V, L70I
VL: B1 VL
B3: 900726 (humanized anti-CD73 antigen-binding protein) (antibody, V domains shown)
VH: B1 VH
VL: B1 VL with M11L, F87Y
B4: 900728 (humanized anti-CD73 antigen-binding protein) (antibody, V domains shown)
VH: B1 VH with L20V, K65Q, A68V, L70M
VL: B1 VL with M11L, F87Y
B5: 900567 (human-mouse chimeric anti-CD73 antigen-binding protein expressed from 124A9 variable regions) (antibody, V domains shown)
VH: QVQLQQPGAELVKPGASVKLSCKASGYTFTSYWIHWVKQRPGQGLDWIGMIHPNSGSTYYNEKFKSKATLTVDKSSSTAYMQLSSLTSEDSAVYYCARYYGSDYEWYFDVWGTGTTVTVSS
VL: DIVMTQSQKFMSTSVGDRVSITCKASQNVRTAVVWYQQNPGQSPKALIYLASNRHTGVPDRFTGSGSGTDFTLTISNVHSEDLADYFCLQHWNYPYTFGGGTKLEIK

target: T1, recombinant human CD73 protein (ACRO …); experiment: SPR, Biacore T200, antibody captured on protein A chip, human CD73 as analyte, 1:1 model
Experimental: In the tests, the assay buffer HBS-EP+ (pH 7.4) and the protein A chip (manufacturer: GE, item No.: 29-1275-56) were used.
The temperatures of a sample chamber and a flow path were set at 25° C., and the protein A chip respectively captured chimeric antibodies or humanized antibodies as ligands and immobilized at about 100 RU. […] After association for 120 s at a flow rate of 30 μL/min, dissociation was carried out for 600 s. Regeneration was then carried out for 60 s with 10 mM Glycine (pH 1.5) at a flow rate of 50 μL/min to implement multi-cycle kinetic detection. A 1:1 binding model was selected for fitting analysis in a Fit local mode to acquire the association rate constant (ka), dissociation rate constant (kd) and dissociation equilibrium rate constant (KD).

Kd [nM]	koff [s⁻¹]	kon [M⁻¹ s⁻¹]	Binder
0.201	0.000126	626000	B1
0.789	0.000494	626000	B2
2.49	0.00124	496000	B3
0.377	0.000317	841000	B4
0.652	0.00049	752000	B5

target: T1, recombinant human CD73 protein (ACRO …); experiment: ELISA, plate coated with CD73 protein, anti-human-IgG-Fc-HRP
Experimental: The ELISA well plate was coated with 30 ul of 2 ug/ml CD73 protein (ACRO, #CD3-H52H7-100μg) solution and incubated overnight at 4° C. Then, the well plate was washed 3 times with PBST, blocked with 5% MILK/PBS at room temperature for 1 h, and then washed 3 times with PBST. […] The diluted antigen-binding protein solutions were then added to the ELISA well plate, 30 ul per well, and incubated at room temperature for 30 min. After the incubation, the well plate was washed 3 times. Anti-human-IgG-Fc-HRP was added and incubated at room temperature for 50 min. After the incubation, the well plate was washed 3 times. The TMB solution was added. The reaction was then terminated with 2M HCl and the OD450 reading was checked.

EC50 [µg/mL]	Binder
0.327	B1
0.364	B2
0.361	B3
0.29	B4
0.282	B5

target: T2, Trypsin inhibitor type 1-S from Glycine …; experiment: SPR, Biacore 8K, trypsin inhibitor immobilized on CM5, antibody at 1000 nM; buffer alone 13.9 RU
Experimental: The non-specific adsorption effect of antigen-binding proteins and non-target molecules were determined by using the SPR method.
The series sensor chip CM5 (GE, #BR-1005-30) was equilibrated at room temperature for 20-30 min and then loaded into the Biacore 8K (GE) instrument. Lysozyme solution (Sigma, #L3790) from egg and trypsin inhibitor type 1-S (Sigma, #T-2327) from Glycine max were immobilized onto the CM5 chip using an amino coupling kit (GE, #BR-1000-50). The injection buffer was HBS-EP (1×) (GE, #BR-1006-69) and four equilibration cycles were set up. The polyclonal rabbit anti-lysozyme (ABcam, Ab391), anti-trypsin inhibitor antibodies (LifeSpan Biosciences, #LS-C76609), chimeric antibodies and humanized antibodies were diluted with equilibration buffer to 1000 nM, and the flow rate was set at 5 μL/min and injection channels 1, 2 and 3, Flow Cell 1 and 2 were selected. The association time was 10 min and the dissociation time was 10 min.
The PI of carboxymethyl dextran was 3.5, the PI of the trypsin inhibitor was 4.5, and the PI of lysozyme was 11.3. In the HBS-EP buffer solution with a pH of 7.4, carboxymethyl dextran and the trypsin inhibitor had strong negative charges, and lysozyme had strong positive charges.

non-specific binding amount (RU)	Binder
12.6	B1
11.6	B2
15.4	B3
13.5	B4
12.8	B5
